The values below come from US20240400691A1 (FBD BIOLOGICS, published 2024).

The IC50 is the concentration that inhibits the measured activity by half. Low readings indicate greater potency in that assay, high ones weaker potency in that assay. Usually EC50 (read off the curve) stands for the concentration that produces a half-maximal response. For orientation: EC50 means the concentration giving half of the maximal effect.

Assay [1] deals with T1, human PD-L1 (human, UniProt Q9NZQ7 19-290).
T1 construct: whole, on cells; For the PD-L1 tf DLD1 cells the species of PD-L1 is not restated; also called PD-L1 tf CHO-S; PD-L1 tf DLD1
Put plainly: flow cytometry competition on PD-L1 tf CHO-S cells against a fixed concentration of biotinylated PD1_G4, streptavidin-PE; IC50 from the table under the curves.

The target of assay [2] is T2, human CD47 (human, UniProt Q08722 19-323).
T2 construct: whole, on cells; also called CD47 tf CHO-S; endogenous CD47 on FaDu and NCI-H460 cells
Put plainly: flow cytometry on CD47 tf CHO-S cells, PE goat anti-human IgG. On the technique in general: A flow cytometer gives signals particle by particle.
Method: To determine the whole cell binding ability of the HCB301_v5 proteins to CD47 expressed on cell surface, tf CHO-S cells expressing human CD47 (CD47 tf CHO-S) were used as target cells. […] The samples were analyzed using a CytoFLEX flow cytometer (Beckman Coulter Inc., CA, USA).
The EC50 values were determined according to the binding curves.

The target of assay [3] is T1, human PD-L1. As to the kind of experiment: flow cytometry on PD-L1 tf DLD1 cells in a 1:1 mixture with DLD1 cells, PE goat anti-human IgG [D].
Method: The selective binding ability of HCB301_v5 proteins to PD-L1-expressing cells was determined as follows. DLD1 cells were labeled with CellTrace™ CFSE (Thermo, Cat #: C34554) and tf DLD1 cells expressing PD-L1 (PD-L1 tf DLD1) were labeled with Celltrace™ (Thermo, Cat #: C34557) according to the instructions provided by manufacturer. […] The samples were analyzed using a CytoFLEX flow cytometer (Beckman Coulter Inc., CA, USA). Afterwards, the cells were gated according to PE signals to calculate the percentages of different cell types by Kaluza analysis software (Beckman Coulter Inc.).
Assay [4] addresses T1, human PD-L1. As to the kind of experiment: flow cytometry on PD-L1 tf CHO-S cells, PE goat anti-human IgG; EC50 from the table under the curves.
Method: (§1) The samples were analyzed using a CytoFLEX flow cytometer (Beckman Coulter Inc., CA, USA).
The EC50 values were also determined according to the binding curves.
Assay [5] addresses T2, human CD47. As to the kind of experiment: flow cytometry on human platelets (CD47 on platelets per paragraph 5), PE goat anti-human IgG.
Method: as §1

T1 sequence (Q9NZQ7 19-290): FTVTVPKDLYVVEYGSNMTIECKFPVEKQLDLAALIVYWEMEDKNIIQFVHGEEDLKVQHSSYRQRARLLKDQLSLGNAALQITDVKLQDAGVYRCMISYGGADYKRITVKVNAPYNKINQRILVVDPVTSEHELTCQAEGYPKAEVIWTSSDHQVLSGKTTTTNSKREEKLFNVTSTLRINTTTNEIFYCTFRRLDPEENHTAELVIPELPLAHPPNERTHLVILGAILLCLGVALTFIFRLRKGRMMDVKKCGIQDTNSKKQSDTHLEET

B1: anti-PD-L1 VHH (2H4) (VHH)
VHH: QVQLVESGGGVVQPGRSLRLSCAASGGPFMSYAMGWFRQAPGKEREFVAAIRWNGISTFYADSVKGRFTISRDNSKNTLYLQMNSLRAEDTAVYYCAAAQTIVTVPENYHFDYWGQGTQVTVSS
With B1, in assay [1], the IC50 came to 392 pM. Also, the binding result in assay [2] is listed as “no binding (tested: 500 nM)”. In assay [3], the half-maximal effective concentration (EC50 (read off the curve)) is about 800 pM. This molecule also yielded a concentration for a half-maximal effect (EC50) in assay [4] of 220 pM.

B2: h1G4 (antibody, human IgG4 S228P, kappa, V domains shown)
VH: QVQLVESGGGLVKPGGSLRLSCAASGFTFSNYGMSWIRQAPGKGLEWVSTISGGGSNIYYADSVKGRFTISRDNAKNSLYLQMNSLRAEDTAVYYCVSYYYGIDFWGQGTSVTVSS
VL: DIQMTQSPSSLSASVGDRVTITCKASQDVTTAVAWYQQKPGKAPKLLIYWASTRHTGVPSRFSGSGSGTDFTLTISSLQPEDFATYYCQQHYTIPWTFGGGTKLEIKR
notes: also called negative control
For the molecule B2, the binding result in assay [5] is on record as “no binding (tested: 20 nM)”.
